Assay in all cases: fluorescence polarisation
A general note: Polarisation of emitted light reports the rotation of a fluorescent probe.

For experiment [1], the target named is HalM2 (haloduracin lanthipeptide synthetase) (Bacillus halodurans C-125).
Experiment [2] concerns the target fluorescein-labeled HalA2 (Bacillus halodurans C-125).
Experiment [3] concerns the target fluorescently-labeled, fully-modified HalA2 peptide (Bacillus halodurans C-125).
Experiment [4] addresses 5-FAM labeled HalA2 core peptide (Bacillus halodurans C-125).

One may read the IC50 as the midpoint of a concentration-inhibition curve. For orientation: Ki means a dissociation constant, usually derived from enzyme kinetics or from competition with a known ligand. What is called Kd is the equilibrium constant for the complex coming apart. High values mean a looser complex, low ones a tighter complex.

In experiment [1], unlabeled HalA2 leader peptide returned a 50% inhibitory concentration (IC50) of 5.6 µM and a Ki of 5.5 µM.

As to “HalM2 (haloduracin lanthipeptide synthetase) (enzyme)”, the dissociation constant (Kd) is 1.9 µM in experiment [2] and 10.4 µM in experiment [3].

The substance “HalCE2 (HalA2 leader peptide attached to the N-terminus of HalM2 through a (GS)15 linker) (enzyme)” yielded a Kd in experiment [4] of 85 µM.

Turning to unlabeled HalA2 peptide, in experiment [1], the 50% inhibitory concentration (IC50) worked out at 1.2 µM and the inhibitory constant (Ki) worked out at 1.2 µM.

Values taken from paper PMC4414810.
